Laboratory results: patent US20240285782A1, “METHODS FOR USING BIOADHESIVE AND STERIC INTERACTIONS OF COPOLYMERS WITH AT LEAST TWO MOIETIES TO MINIMIZE ADVERSE EFFECTS MEDIATED BY EXTERNAL INFLUENCES ON CELL, TISSUE, ORGAN SYSTEM, AND ORGANISM BIOLOGY” (priority 2021, published 2024)
Like-named read-outs stand apart in the source and are kept apart here.

Columns and labels:
[1] = cited from earlier work
corneal cell = settings: low dose exposure; cited from earlier work

## Belnatomab mafodotin: ADC cited as an example for half-life
[1]; after the first infusion
  half-life: 12 days
[1]; in steady state
  half-life: 14 days
[1]; in vivo
  time to reach steady state: 70 days

## CCN(c1nc(N)c(C(=O)N=C(N)N)nc1Cl)C(C)C [EIPA, 5-(N-ethyl-N-isopropyl)amiloride]
HCE-T cells
  toxicity (positive control, pilot evaluation FIG. 8): toxic
Corneal cell
  toxicity to cells, corneal cell death: toxic
